Positions count from the first letter of the chain named.
T1: hsGLUT4 D506A (human, UniProt P14672 1-509)
T1 sequence: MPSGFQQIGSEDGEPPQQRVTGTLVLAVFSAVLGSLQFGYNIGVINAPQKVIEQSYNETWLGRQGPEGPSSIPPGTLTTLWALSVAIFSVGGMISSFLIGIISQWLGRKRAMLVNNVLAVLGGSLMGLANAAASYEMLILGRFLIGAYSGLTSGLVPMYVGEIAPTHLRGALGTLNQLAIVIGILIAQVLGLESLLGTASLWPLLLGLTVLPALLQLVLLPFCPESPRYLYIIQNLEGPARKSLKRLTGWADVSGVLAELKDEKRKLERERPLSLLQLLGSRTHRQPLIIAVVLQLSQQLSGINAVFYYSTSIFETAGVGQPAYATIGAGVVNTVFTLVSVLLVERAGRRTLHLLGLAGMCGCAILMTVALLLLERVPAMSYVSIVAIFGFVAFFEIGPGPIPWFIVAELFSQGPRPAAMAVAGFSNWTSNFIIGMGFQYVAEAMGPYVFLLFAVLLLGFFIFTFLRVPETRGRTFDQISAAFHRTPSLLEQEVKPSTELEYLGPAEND

T2: hsGLUT4 G414A (human, UniProt P14672 1-509)
T2 sequence: T1 sequence with G414A, A506D

T3: hsGLUT4 I163A (human, UniProt P14672 1-509)
T3 sequence: T1 sequence with I163A, A506D

T4: hsGLUT4 I313A (human, UniProt P14672 1-509)
T4 sequence: T1 sequence with I313A, A506D

B1: AB111 (Fc fusion)
scFv: ALTQPSSVSANPGETVKITCSGSGSWYGWFQQKSPGSAPVTVIYSNDKRPSDIPSRFSGSKSGSTSTLTITGVQVEDEAVYYCGNWDIFGAGTTLTVLGQSSRSSGGGGSSGGGGSAVTLDESGGGLQTPGGALSLVCKASGFTFSSHGMGWVRQAPGKGLEWVASISTGRYTFYAPAVKGRATISRDNGQSTVRLQLNNLRAEDTATYYCTKCAGLNGCGGGEIDAWGHGTEVIVSS
notes: Bivalent scFv-Fc; also called MAb AB111; not shown: Fc fragment of human IgG1, cloned in frame with the scFv
B2: AB108 (Fc fusion)
scFv: ALTQPSSVSANLGGTVKITCSGSSGSYGWYQQKAPGSAPVTLIYRNDKRPSDIPSRFSGSESGSTGTLTITGVQAEDEAVYFCGGYDSSAGYAAFGAGTTLTVLGQSSRSSGGGGSSGGGGSAVTLDESGGGLQTPGGALSLVCKASGFTFSSHGMGWVRQAPGKGLEWVGSISTGRYTFYAPAVKGRATISRDNGQSTLRLQLNNLRAEDTGTYYCTKCAGLNGCGGGEIDAWGHGTEVIVSS
notes: Bivalent scFv-Fc; also called MAb AB108; not shown: Fc fragment of human IgG1, cloned in frame with the scFv
B3: AB101 (scFv)
scFv: ALTQPSSVSANPGETVKITCSGSSNSYGWYQQKSPGSAPVTVIYYNDKRPSDIPSRFSGSKSDSTHTLTITGVRAEDEAVYFCGSYDSTYVGIFGAGTTLTVLGQSSRSSGGGGSSGGGGSAVTLDESGGGLQTPGGTLSLVCKASGFTFSSNAMGWVRQAPGKGLEWVAGISSDGRYTKYGSAVKGRATISRDNGQSTVRLQLNNLRAEDTGTYFCAKAFGNNYRRIYAGQIDAWGHGTEVIVSS
notes: Chicken-derived clone used as a control; the four lead clones were tested as scFv-human IgG1 Fc; also called MAb AB101

Experiments:
Assay in all cases: flow cytometry, alanine-scan library in HEK-293T
[1] = biological target: T1, hsGLUT4 D506A
Method: (§1) Because of the state-dependence of the isolated MAbs, we next wished to understand the mechanism by which each MAb could recognize GLUT4 in its different conformations. The residues required for binding of each MAb were determined using shotgun mutagenesis comprehensive alanine scanning (Davidson E & Doranz B J (2014) A High-Throughput Shotgun Mutagenesis Approach to Mapping B-cell Antibody Epitopes. Immunology, which is hereby incorporated by reference in its entirety). All residues of hsGLUT4 were individually mutated to alanine, with existing alanines changed to serines. Mutations were obtained for 508 of the 509 residues of GLUT4 (excluding the initiating methionine). The entire mutation library was transfected into human HEK-293T cells in a 384-well array format (one clone per well) and assessed for immunoreactivity using high-throughput flow cytometry.
(§2) HEK-293T cells were transfected by CaPO₄ with plasmids in 6-well culture plates (Falcon) at 750,000 cells/well. At 48 hours post transfection, cells were stained with anti-V5 and anti-GLUT4 MAbs (purified scFv, 2 μg/ml) followed by biotinylated goat anti-mouse or human antibody (1:500) and streptavidin-PerCP (1:500). Fluorescence was detected using an Intellicyt high-throughput flow cytometer (HTFC; Intellicyt, Albuquerque, N. Mex.). For cell permeabilization, cells were treated with saponin at 0.1% in PBS for 20 minutes. To discriminate intact (live) and permeabilized (dead) cells without the use of detergent, propidium iodide (PI) was added to HEK-293T cells at 1 ug/ml just prior to flow cytometry. Where indicated, cytochalasin B (Sigma) was used at a final concentration of 10 uM and phloretin (Sigma) was used at a final concentration of 100 uM, each added in 10% NGS for 30 minutes prior to antibody staining as well as included with the primary antibody.

[2] = biological target: T2, hsGLUT4 G414A
Method: as §1, §2

[3] = biological target: T3, hsGLUT4 I163A
Method: as §1, §2

[4] = biological target: T4, hsGLUT4 I313A
Method: as §1, §2

Molecule | % of binding to wild type GLUT4 [1] | % of binding to wild type GLUT4 [2] | % of binding to wild type GLUT4 [3] | % of binding to wild type GLUT4 [4]
1F8 (antibody) | 29% | 78% | 91% | 85%
B1 | 158% | 109% | 87% | 106%
B2 | 105% | 80% | 90% | 39%
B3 | 34% | 83% | 115% | 94%

From patent publication US20210238276A1 (INTEGRAL MOLECULAR, published 2021)
